# Measurements: patent US20250332197A1 (SUNSHINE LAKE PHARMA, published 2025)
# Numbering of substitutions follows the chain as printed.
# T1: claudin-18.2 antigen (manufacturer: GenScript, batch number: R50092011) (UniProt P56856-2 1-261, limits assumed)
# T1 construct: Bought antigen
# T1 sequence (looked up): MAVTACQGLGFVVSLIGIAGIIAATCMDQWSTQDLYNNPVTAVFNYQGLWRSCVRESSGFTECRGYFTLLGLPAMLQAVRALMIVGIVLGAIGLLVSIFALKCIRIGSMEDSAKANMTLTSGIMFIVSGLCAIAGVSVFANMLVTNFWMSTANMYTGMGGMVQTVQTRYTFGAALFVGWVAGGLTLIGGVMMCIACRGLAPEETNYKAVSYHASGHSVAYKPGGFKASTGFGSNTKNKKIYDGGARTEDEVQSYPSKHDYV
# B1: 1E7-huVH3-HC (IgG1) huVL2 (antibody)
# heavy: not shown
# light: DIQMTQSPSSLSASVGDRVTMTCKSSQSLLNSGNQKNYLTWYQQKPGKAPKLLIYWASTRESGVPSRFSGSGSGTDFTLTISSLQPEDFATYYCQNDYSYPFTFGGGTKLEIKRTVAAPSVFIFPPSDEQLKSGTASVVCLLNNFYPREAKVQWKVDNALQSGNSQESVTEQDSKDSTYSLSSTLTLSKADYEKHKVYACEVTHQGLSSPVTKSFNRGEC
# notes: humanized 1E7, human IgG1, kappa
# B2: 1E7-huVH3huVL2 (antibody, human IgG4 S228P, kappa)
# heavy: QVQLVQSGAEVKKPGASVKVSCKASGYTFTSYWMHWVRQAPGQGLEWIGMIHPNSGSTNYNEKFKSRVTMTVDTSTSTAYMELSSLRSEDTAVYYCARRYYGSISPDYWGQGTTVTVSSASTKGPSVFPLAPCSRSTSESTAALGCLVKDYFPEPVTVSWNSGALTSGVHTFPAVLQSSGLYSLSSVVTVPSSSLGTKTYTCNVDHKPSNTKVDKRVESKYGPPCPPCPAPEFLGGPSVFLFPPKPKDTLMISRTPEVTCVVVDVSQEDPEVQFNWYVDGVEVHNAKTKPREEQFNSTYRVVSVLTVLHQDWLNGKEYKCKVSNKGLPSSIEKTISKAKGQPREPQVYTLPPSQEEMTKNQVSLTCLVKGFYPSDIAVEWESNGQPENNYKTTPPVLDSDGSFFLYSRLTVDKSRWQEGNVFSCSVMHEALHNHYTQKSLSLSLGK
# light: B1 light
# notes: humanized 1E7, human IgG4, kappa
# B3: 1B6-huVH3huVL2 (antibody, human IgG4 S228P, kappa)
# heavy: not shown
# light: B1 light with L30F, F102L
# notes: humanized 1B6, human IgG4, kappa
# B4: 1E7-huVH3huVL1 (antibody, human IgG4 S228P, kappa)
# heavy: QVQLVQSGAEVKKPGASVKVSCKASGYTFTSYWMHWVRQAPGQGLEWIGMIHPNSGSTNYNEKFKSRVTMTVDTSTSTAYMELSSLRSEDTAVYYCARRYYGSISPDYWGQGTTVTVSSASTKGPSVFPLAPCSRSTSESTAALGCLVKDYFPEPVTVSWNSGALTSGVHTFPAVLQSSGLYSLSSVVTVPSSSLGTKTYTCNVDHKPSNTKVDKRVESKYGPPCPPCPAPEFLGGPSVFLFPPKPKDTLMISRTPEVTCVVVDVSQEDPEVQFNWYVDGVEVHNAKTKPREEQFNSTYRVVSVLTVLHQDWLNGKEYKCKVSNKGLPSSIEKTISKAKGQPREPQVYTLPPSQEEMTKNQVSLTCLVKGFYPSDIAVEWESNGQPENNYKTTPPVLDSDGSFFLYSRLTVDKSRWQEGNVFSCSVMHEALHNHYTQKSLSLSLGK
# light: B1 light with Q3V, A13V, K48Q, A49P, S66D, L84V
# notes: as for B2
# B5: 1B6-huVH4huVL3 (antibody, human IgG4 S228P, kappa)
# heavy: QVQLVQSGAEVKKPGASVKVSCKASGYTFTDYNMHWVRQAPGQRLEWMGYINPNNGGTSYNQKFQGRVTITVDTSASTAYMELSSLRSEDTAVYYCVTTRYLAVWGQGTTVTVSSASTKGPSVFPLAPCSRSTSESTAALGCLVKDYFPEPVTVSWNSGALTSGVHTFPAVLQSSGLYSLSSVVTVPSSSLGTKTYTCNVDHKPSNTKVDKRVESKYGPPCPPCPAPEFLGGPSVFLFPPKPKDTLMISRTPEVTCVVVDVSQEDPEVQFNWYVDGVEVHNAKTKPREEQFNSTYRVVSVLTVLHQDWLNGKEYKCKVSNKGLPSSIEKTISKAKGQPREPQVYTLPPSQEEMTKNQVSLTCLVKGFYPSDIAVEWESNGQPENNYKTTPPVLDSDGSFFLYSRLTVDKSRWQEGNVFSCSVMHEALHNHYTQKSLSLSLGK
# light: B1 light with M21I, K24R, L30F, F102L
# notes: humanized 1B6, human IgG4, kappa; also called P04891
# B6: 1E7-huVH2-HC (IgG1) huVL2 (antibody)
# heavy: not shown
# light: B1 light
# notes: as for B1
# B7: 1E7-huVH4huVL3 (antibody, human IgG4 S228P, kappa)
# heavy: not shown
# light: B1 light with M21I, K24R
# notes: as for B2
# B8: 1E7-huVH5-HC (IgG1) huVL2 (antibody)
# heavy: not shown
# light: B1 light
# notes: as for B1
# B9: 1E7-huVH4-HC (IgG1) huVL3 (antibody)
# heavy: not shown
# light: B1 light with M21I, K24R
# notes: as for B1
# B10: 1E7-huVH1huVL2 (antibody, human IgG4 S228P, kappa)
# heavy: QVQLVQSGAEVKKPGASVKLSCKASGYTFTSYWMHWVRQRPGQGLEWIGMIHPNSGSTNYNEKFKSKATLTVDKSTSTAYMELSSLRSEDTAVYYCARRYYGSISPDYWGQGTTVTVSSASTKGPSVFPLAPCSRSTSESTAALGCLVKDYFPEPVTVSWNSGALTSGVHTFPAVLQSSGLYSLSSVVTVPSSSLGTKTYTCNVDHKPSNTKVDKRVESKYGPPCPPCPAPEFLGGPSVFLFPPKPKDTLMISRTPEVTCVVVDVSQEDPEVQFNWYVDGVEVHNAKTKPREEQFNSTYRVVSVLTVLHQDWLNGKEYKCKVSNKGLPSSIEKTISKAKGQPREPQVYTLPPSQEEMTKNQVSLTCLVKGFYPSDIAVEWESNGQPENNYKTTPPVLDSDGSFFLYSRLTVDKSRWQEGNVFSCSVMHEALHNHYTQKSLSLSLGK
# light: B1 light
# notes: as for B2
# B11: 1B6-huVH5huVL2 (antibody, human IgG4 S228P, kappa)
# heavy: not shown
# light: B1 light with L30F, F102L
# notes: as for B3
# B12: 1E7-huVH4-HC (IgG1) huVL2 (antibody)
# heavy: not shown
# light: B1 light
# notes: as for B1
# B13: 1B6-huVH4huVL2 (antibody, human IgG4 S228P, kappa)
# heavy: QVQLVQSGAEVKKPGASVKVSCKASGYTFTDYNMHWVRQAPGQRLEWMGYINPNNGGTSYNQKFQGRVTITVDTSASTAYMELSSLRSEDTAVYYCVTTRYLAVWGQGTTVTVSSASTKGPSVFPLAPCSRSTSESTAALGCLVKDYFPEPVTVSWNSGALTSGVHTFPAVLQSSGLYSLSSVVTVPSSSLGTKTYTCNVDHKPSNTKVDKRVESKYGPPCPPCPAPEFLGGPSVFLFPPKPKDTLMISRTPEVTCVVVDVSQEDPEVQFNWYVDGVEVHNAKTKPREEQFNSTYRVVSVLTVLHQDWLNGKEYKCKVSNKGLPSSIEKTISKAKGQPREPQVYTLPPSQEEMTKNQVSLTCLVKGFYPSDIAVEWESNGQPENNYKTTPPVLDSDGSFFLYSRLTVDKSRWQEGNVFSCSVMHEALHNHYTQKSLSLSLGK
# light: B1 light with L30F, F102L
# notes: as for B3
# B14: 1E7-huVH2huVL1 (antibody, human IgG4 S228P, kappa)
# heavy: not shown
# light: B1 light with Q3V, A13V, K48Q, A49P, S66D, L84V
# notes: as for B2
# B15: 1E7-huVH5huVL3 (antibody, human IgG4 S228P, kappa)
# heavy: not shown
# light: B1 light with M21I, K24R
# notes: as for B2
# B16: 1E7-huVH3-HC (IgG1) huVL1 (antibody)
# heavy: not shown
# light: B1 light with Q3V, A13V, K48Q, A49P, S66D, L84V
# notes: as for B1
# B17: 1E7-huVH4huVL2 (antibody, human IgG4 S228P, kappa)
# heavy: not shown
# light: B1 light
# notes: humanized 1E7, human IgG4, kappa; also called P04902
# B18: 1B6-huVH1huVL2 (antibody, human IgG4 S228P, kappa)
# heavy: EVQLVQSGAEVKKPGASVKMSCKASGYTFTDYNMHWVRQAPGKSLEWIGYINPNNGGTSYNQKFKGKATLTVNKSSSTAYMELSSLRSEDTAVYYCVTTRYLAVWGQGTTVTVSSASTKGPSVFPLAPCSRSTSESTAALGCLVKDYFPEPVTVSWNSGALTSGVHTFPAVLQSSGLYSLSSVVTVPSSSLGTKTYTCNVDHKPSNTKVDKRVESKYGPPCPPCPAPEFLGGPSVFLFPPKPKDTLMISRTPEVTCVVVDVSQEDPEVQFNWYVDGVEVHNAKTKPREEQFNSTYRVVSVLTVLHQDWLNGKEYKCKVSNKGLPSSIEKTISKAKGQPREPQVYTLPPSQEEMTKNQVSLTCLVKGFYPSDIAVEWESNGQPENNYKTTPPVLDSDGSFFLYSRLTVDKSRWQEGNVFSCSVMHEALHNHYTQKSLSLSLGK
# light: B1 light with L30F, F102L
# notes: as for B3
# B19: 1B6-huVH2huVL2 (antibody, human IgG4 S228P, kappa)
# heavy: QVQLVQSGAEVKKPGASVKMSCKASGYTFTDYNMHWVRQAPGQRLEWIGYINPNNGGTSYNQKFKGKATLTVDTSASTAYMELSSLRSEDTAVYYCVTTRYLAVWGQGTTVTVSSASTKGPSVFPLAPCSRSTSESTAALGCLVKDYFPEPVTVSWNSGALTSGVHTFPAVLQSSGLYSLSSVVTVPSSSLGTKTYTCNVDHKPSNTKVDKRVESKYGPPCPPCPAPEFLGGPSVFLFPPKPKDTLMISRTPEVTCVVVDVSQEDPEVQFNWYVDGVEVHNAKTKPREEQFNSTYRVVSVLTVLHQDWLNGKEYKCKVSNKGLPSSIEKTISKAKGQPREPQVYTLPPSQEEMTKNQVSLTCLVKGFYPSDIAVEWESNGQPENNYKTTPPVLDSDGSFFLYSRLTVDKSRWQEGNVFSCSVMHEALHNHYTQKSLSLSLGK
# light: B1 light with L30F, F102L
# notes: as for B3
# B20: 1B6-huVH5huVL3 (antibody, human IgG4 S228P, kappa)
# heavy: not shown
# light: B1 light with M21I, K24R, L30F, F102L
# notes: as for B3
# B21: 1E7-huVH2huVL2 (antibody, human IgG4 S228P, kappa)
# heavy: not shown
# light: B1 light
# notes: humanized 1E7, human IgG4, kappa; also called P04898
# B22: 1B6-huVH3huVL3 (antibody, human IgG4 S228P, kappa)
# heavy: not shown
# light: B1 light with M21I, K24R, L30F, F102L
# notes: as for B3
# B23: 1E7-huVH5huVL2 (antibody, human IgG4 S228P, kappa)
# heavy: not shown
# light: B1 light
# notes: as for B2
# B24: 1E7-huVH3huVL3 (antibody, human IgG4 S228P, kappa)
# heavy: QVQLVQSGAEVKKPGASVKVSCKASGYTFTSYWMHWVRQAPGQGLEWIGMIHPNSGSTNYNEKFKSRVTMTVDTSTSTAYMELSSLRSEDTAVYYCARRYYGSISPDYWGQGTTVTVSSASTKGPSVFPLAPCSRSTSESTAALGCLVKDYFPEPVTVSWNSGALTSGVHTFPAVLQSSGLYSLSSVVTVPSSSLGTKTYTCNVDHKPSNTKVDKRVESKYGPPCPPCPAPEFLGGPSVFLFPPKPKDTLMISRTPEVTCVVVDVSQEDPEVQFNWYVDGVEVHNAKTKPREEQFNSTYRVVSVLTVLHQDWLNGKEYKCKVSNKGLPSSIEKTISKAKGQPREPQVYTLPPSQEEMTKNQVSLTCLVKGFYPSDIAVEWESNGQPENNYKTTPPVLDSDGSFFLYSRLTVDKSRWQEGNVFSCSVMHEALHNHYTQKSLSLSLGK
# light: B1 light with M21I, K24R
# notes: as for B2
# B25: 1E7-huVH5-HC (IgG1) huVL3 (antibody)
# heavy: not shown
# light: B1 light with M21I, K24R
# notes: as for B1
# B26: 1E7-huVH3-HC (IgG1) huVL3 (antibody)
# heavy: not shown
# light: B1 light with M21I, K24R
# notes: as for B1
# B27: 1B6-huVH3huVL1 (antibody, human IgG4 S228P, kappa)
# heavy: not shown
# light: B1 light with Q3V, A13V, L30F, S66D, L84V, Y93F, F102L
# notes: humanized 1B6, human IgG4, kappa; also called P04887
# B28: 1E7-huVH1-HC (IgG1) huVL2 (antibody)
# heavy: not shown
# light: B1 light
# notes: as for B1
# B29: 1E7-huVH1huVL1 (antibody, human IgG4 S228P, kappa)
# heavy: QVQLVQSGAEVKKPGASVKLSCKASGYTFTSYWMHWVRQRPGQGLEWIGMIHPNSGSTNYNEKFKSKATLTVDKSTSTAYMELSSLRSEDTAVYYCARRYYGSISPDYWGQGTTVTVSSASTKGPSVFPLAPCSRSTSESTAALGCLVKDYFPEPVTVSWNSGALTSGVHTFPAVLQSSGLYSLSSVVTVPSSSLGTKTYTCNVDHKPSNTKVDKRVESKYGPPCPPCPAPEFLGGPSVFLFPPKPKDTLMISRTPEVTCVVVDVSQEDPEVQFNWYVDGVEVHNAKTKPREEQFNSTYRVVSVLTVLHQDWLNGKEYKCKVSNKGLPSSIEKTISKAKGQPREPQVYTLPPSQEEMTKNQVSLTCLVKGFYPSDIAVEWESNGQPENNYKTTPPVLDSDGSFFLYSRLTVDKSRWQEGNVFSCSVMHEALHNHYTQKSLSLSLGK
# light: B1 light with Q3V, A13V, K48Q, A49P, S66D, L84V
# notes: as for B2
# B30: 1B6-huVH2huVL1 (antibody, human IgG4 S228P, kappa)
# heavy: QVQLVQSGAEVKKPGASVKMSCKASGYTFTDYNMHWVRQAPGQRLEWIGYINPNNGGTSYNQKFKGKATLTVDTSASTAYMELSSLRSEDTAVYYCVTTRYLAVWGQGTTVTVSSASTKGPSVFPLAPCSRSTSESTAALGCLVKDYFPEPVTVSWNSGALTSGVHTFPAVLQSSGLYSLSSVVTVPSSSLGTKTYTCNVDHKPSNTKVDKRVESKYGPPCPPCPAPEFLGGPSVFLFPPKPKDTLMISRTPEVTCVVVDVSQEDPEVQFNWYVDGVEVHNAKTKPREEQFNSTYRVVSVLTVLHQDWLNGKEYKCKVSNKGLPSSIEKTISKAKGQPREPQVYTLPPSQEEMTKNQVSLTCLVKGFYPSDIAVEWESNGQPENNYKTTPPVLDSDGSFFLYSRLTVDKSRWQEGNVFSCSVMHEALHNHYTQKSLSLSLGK
# light: B1 light with Q3V, A13V, L30F, S66D, L84V, Y93F, F102L
# notes: as for B3
# B31: 1E7-huVH1-HC (IgG1) huVL1 (antibody)
# heavy: not shown
# light: B1 light with Q3V, A13V, K48Q, A49P, S66D, L84V
# notes: as for B1
# B32: 1E7-huVH2-HC (IgG1) huVL1 (antibody)
# heavy: not shown
# light: B1 light with Q3V, A13V, K48Q, A49P, S66D, L84V
# notes: as for B1
# B33: 1E7-mVHmVL (antibody, human IgG4 S228P, kappa)
# heavy: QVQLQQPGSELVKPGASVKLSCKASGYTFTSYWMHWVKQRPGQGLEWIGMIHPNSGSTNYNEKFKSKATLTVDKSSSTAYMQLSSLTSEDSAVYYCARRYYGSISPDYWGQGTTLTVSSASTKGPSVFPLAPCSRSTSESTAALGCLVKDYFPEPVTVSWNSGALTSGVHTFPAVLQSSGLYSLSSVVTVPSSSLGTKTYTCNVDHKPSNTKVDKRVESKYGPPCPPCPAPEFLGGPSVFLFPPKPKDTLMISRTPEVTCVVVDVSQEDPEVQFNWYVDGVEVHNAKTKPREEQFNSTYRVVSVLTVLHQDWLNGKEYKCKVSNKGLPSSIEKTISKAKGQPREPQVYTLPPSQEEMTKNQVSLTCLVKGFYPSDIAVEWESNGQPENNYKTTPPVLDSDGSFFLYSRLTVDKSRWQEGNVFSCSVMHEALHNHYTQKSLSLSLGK
# light: DIVMTQSPSSLSVTAGEKVTMSCKSSQSLLNSGNQKNYLTWYQQKPGQPPKLLIYWASTRESGVPDRFTGSGSGTDFTLTISSVQAEDLAVYYCQNDYSYPFTFGSGTKLEIKRTVAAPSVFIFPPSDEQLKSGTASVVCLLNNFYPREAKVQWKVDNALQSGNSQESVTEQDSKDSTYSLSSTLTLSKADYEKHKVYACEVTHQGLSSPVTKSFNRGEC
# notes: also called chimeric antibody 1E7; chimeric antibody murine 1E7 monoclonal antibody
# B34: 1E7-mVH-HC (IgG1) mVL (antibody)
# heavy: not shown
# light: B33 light
# notes: also called chimeric antibody 1E7-mVH-HC (IgG1) mVL
# B35: 1B6-mVH-HC (IgG1) mVL (antibody)
# heavy: not shown
# light: B33 light with S12T, L30F, Y93F, F102L, S106A, I112L
# notes: also called chimeric antibody 1B6-mVH-HC (IgG1) mVL
# B36: 1B6-mVHmVL (antibody, human IgG4 S228P, kappa)
# heavy: not shown
# light: B33 light with S12T, L30F, Y93F, F102L, S106A, I112L
# notes: also called chimeric antibody 1B6; chimeric antibody murine 1B6 monoclonal antibody
# Experiments:
# [1] = target: T1, claudin-18.2 antigen (manufacturer: …); experiment: Gator label-free kinetics, antibody loaded, antigen 2000-500 nM
# Protocol: The GATOR instrument and associated software were opened and the Kinetics experimental mode was selected. After data collection, Kinetics fitting was performed to calculate the affinity kinetic parameters. The correlation coefficient R² of all antibodies in the Global fitting mode was greater than 0.95, which met the system suitability requirements and the results were reliable.
# [2] = target: T1, claudin-18.2 antigen (manufacturer: …); experiment: ELISA, plate coated with claudin-18.2 antigen
# Protocol: The ELISA plates were washed three times with PBST and blocked with 5% PBS-milk for 2 h at room temperature. The ELISA plate was washed three times with PBST, and the diluted antibodies were added to the ELISA plate, 30 μL per well, and incubated at room temperature for 60 min. The plates were washed three times with PBST and incubated with anti-human IgG-Fc-HRP (abcam, ab97225) for 50 min at room temperature. The plate was washed 12 times with PBST, and TMB was added, 30 μL per well. The reaction was terminated with stop solution and OD450 was read. The ELISA affinity EC50 was calculated.
Binder,Kd [1],koff [1],kon [1],EC50 [2]
B1,0.289 nM,2.94e-06 s⁻¹,10200 M⁻¹ s⁻¹,0.0576 µg/mL
B2,2.02 nM,2.08e-05 s⁻¹,10300 M⁻¹ s⁻¹,0.56 µg/mL
B3,12.7 nM,0.000121 s⁻¹,9480 M⁻¹ s⁻¹,0.245 µg/mL
B4,12 nM,0.000132 s⁻¹,11000 M⁻¹ s⁻¹,0.606 µg/mL
B5,7.24 nM,8.07e-05 s⁻¹,11100 M⁻¹ s⁻¹,0.346 µg/mL
B6,2.89 nM,3.18e-05 s⁻¹,11000 M⁻¹ s⁻¹,0.0555 µg/mL
B7,6.19 nM,6.27e-05 s⁻¹,10100 M⁻¹ s⁻¹,0.441 µg/mL
B8,13.1 nM,0.000167 s⁻¹,12800 M⁻¹ s⁻¹,0.141 µg/mL
B9,2.64 nM,2.99e-05 s⁻¹,11300 M⁻¹ s⁻¹,0.05 µg/mL
B10,5.08 nM,5.56e-05 s⁻¹,10900 M⁻¹ s⁻¹,0.156 µg/mL
B11,10.6 nM,0.000144 s⁻¹,13600 M⁻¹ s⁻¹,0.202 µg/mL
B12,10.7 nM,0.000126 s⁻¹,11800 M⁻¹ s⁻¹,0.0397 µg/mL
B13,7.06 nM,7.06e-05 s⁻¹,9990 M⁻¹ s⁻¹,0.21 µg/mL
B14,0.277 nM,2.65e-06 s⁻¹,9550 M⁻¹ s⁻¹,0.436 µg/mL
B15,3.21 nM,3.09e-05 s⁻¹,9610 M⁻¹ s⁻¹,0.0931 µg/mL
B16,0.35 nM,3.6e-06 s⁻¹,10300 M⁻¹ s⁻¹,0.0663 µg/mL
B17,4.6 nM,4.86e-05 s⁻¹,10600 M⁻¹ s⁻¹,0.309 µg/mL
B18,10.6 nM,0.000164 s⁻¹,15500 M⁻¹ s⁻¹,0.0775 µg/mL

Binder,Kd [1],koff [1],kon [1],EC50 [2]
B19,4.86 nM,6.78e-05 s⁻¹,13900 M⁻¹ s⁻¹,0.192 µg/mL
B20,7.51 nM,9.78e-05 s⁻¹,13000 M⁻¹ s⁻¹,0.174 µg/mL
B21,21.6 nM,0.000269 s⁻¹,12400 M⁻¹ s⁻¹,0.262 µg/mL
B22,8.11 nM,8.56e-05 s⁻¹,10600 M⁻¹ s⁻¹,0.209 µg/mL
B23,5.24 nM,5.29e-05 s⁻¹,10100 M⁻¹ s⁻¹,0.496 µg/mL
B24,13.5 nM,0.000149 s⁻¹,11000 M⁻¹ s⁻¹,0.509 µg/mL
B25,0.929 nM,9.83e-06 s⁻¹,10600 M⁻¹ s⁻¹,0.13 µg/mL
B26,11.6 nM,0.000132 s⁻¹,11300 M⁻¹ s⁻¹,0.0707 µg/mL
B27,0.98 nM,1.27e-05 s⁻¹,13000 M⁻¹ s⁻¹,0.0569 µg/mL
B28,4.85 nM,5.87e-05 s⁻¹,12100 M⁻¹ s⁻¹,0.0305 µg/mL
B29,3.58 nM,3.81e-05 s⁻¹,10600 M⁻¹ s⁻¹,0.309 µg/mL
B30,4.57 nM,6.36e-05 s⁻¹,13900 M⁻¹ s⁻¹,0.0978 µg/mL
B31,4.9 nM,5.97e-05 s⁻¹,12200 M⁻¹ s⁻¹,0.0479 µg/mL
B32,1.82 nM,1.97e-05 s⁻¹,10900 M⁻¹ s⁻¹,0.111 µg/mL
B33,2.66 nM,2.71e-05 s⁻¹,10200 M⁻¹ s⁻¹,–
B34,3.82 nM,4.48e-05 s⁻¹,11700 M⁻¹ s⁻¹,–
B35,44.4 nM,0.000792 s⁻¹,17800 M⁻¹ s⁻¹,–
B36,84.2 nM,0.00188 s⁻¹,22300 M⁻¹ s⁻¹,–
